Assay results as given in the supplement of paper PMC9112550, “Optimization of the antimicrobial peptide Bac7 by deep mutational scanning” (BMC Biology, 2022).

Tested on: Escherichia coli TOP10
Assay: shrunken log2 fold change of peptide-encoding DNA abundance (4.5 h post-induction vs induction); higher = less antimicrobial activity (less host growth inhibition)
Settings: time post-induction: 4.5 h; library: site-saturation at positions 5, 18, 19, 20
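Further: peptides expressed intracellularly from a pBAD plasmid library in pooled LB shake-flask culture, induced with 0.3% L-arabinose, DNA abundance read by NGS, three biological replicates, DESeq2 with apeglm shrinkage.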

Row | Sequence | shrunken log2 fold change
1 | RRIRMRPPRLPRPRPRPMSPPRP | 0.00473
2 | RRIRMRPPRLPRPRPRPMTVPRP | 0.0944
3 | RRIRMRPPRLPRPRPRPMWKPRP | -0.00141
4 | RRIRMRPPRLPRPRPRPMYAPRP | 0.0486
5 | RRIRMRPPRLPRPRPRPMYIPRP | -0.0178
6 | RRIRMRPPRLPRPRPRPNAAPRP | 2.83
7 | RRIRMRPPRLPRPRPRPNCEPRP | 0.247
8 | RRIRMRPPRLPRPRPRPNCMPRP | 0.183
9 | RRIRMRPPRLPRPRPRPNCTPRP | -0.15
10 | RRIRMRPPRLPRPRPRPNFGPRP | 0.0832
11 | RRIRMRPPRLPRPRPRPNGGPRP | 0.112
12 | RRIRMRPPRLPRPRPRPNGMPRP | 0.185
13 | RRIRMRPPRLPRPRPRPNHNPRP | -0.687
14 | RRIRMRPPRLPRPRPRPNHYPRP | -0.352
15 | RRIRMRPPRLPRPRPRPNIAPRP | 0.397
16 | RRIRMRPPRLPRPRPRPNIRPRP | -0.169
17 | RRIRMRPPRLPRPRPRPNLDPRP | 0.00884
18 | RRIRMRPPRLPRPRPRPNNEPRP | -0.0748
19 | RRIRMRPPRLPRPRPRPNNRPRP | -0.0376
20 | RRIRMRPPRLPRPRPRPNPVPRP | -0.0385
21 | RRIRMRPPRLPRPRPRPNQCPRP | -0.198
22 | RRIRMRPPRLPRPRPRPNQHPRP | -0.0206

Row | Sequence | shrunken log2 fold change
23 | RRIRMRPPRLPRPRPRPNQYPRP | -0.218
24 | RRIRMRPPRLPRPRPRPNRFPRP | -0.0257
25 | RRIRMRPPRLPRPRPRPNRIPRP | -0.18
26 | RRIRMRPPRLPRPRPRPNRSPRP | -0.0367
27 | RRIRMRPPRLPRPRPRPNRVPRP | -0.144
28 | RRIRMRPPRLPRPRPRPNRYPRP | 0.166
29 | RRIRMRPPRLPRPRPRPNSPPRP | 0.147
30 | RRIRMRPPRLPRPRPRPNTKPRP | -0.0097
31 | RRIRMRPPRLPRPRPRPNVAPRP | 0.099
32 | RRIRMRPPRLPRPRPRPNWQPRP | 0.00599
33 | RRIRMRPPRLPRPRPRPPAEPRP | 3.68
34 | RRIRMRPPRLPRPRPRPPAYPRP | 0.608
35 | RRIRMRPPRLPRPRPRPPERPRP | 1.98
36 | RRIRMRPPRLPRPRPRPPHCPRP | 1.68
37 | RRIRMRPPRLPRPRPRPPKCPRP | 0.0414
38 | RRIRMRPPRLPRPRPRPPKFPRP | 0.166
39 | RRIRMRPPRLPRPRPRPPKIPRP | 0.45
40 | RRIRMRPPRLPRPRPRPPMEPRP | 0.696
41 | RRIRMRPPRLPRPRPRPPMQPRP | 0.504
42 | RRIRMRPPRLPRPRPRPPNRPRP | 1.08
43 | RRIRMRPPRLPRPRPRPPPIPRP | 1.47
44 | RRIRMRPPRLPRPRPRPPQAPRP | 1.06

Row | Sequence | shrunken log2 fold change
45 | RRIRMRPPRLPRPRPRPPQSPRP | 0.721
46 | RRIRMRPPRLPRPRPRPPRSPRP | 1.6
47 | RRIRMRPPRLPRPRPRPPRTPRP | 1.46
48 | RRIRMRPPRLPRPRPRPPSQPRP | 1.18
49 | RRIRMRPPRLPRPRPRPPSVPRP | 0.777
50 | RRIRMRPPRLPRPRPRPPTEPRP | 0.413
51 | RRIRMRPPRLPRPRPRPPTNPRP | 0.949
52 | RRIRMRPPRLPRPRPRPPYEPRP | 0.0457
53 | RRIRMRPPRLPRPRPRPQAGPRP | 0.214
54 | RRIRMRPPRLPRPRPRPQEIPRP | -0.00046
55 | RRIRMRPPRLPRPRPRPQGTPRP | -0.000856
56 | RRIRMRPPRLPRPRPRPQHKPRP | -0.0523
57 | RRIRMRPPRLPRPRPRPQHVPRP | 0.0365
58 | RRIRMRPPRLPRPRPRPQKAPRP | 0.0203
59 | RRIRMRPPRLPRPRPRPQKMPRP | 0.0453
60 | RRIRMRPPRLPRPRPRPQKSPRP | 0.167
61 | RRIRMRPPRLPRPRPRPQKYPRP | 0.136
62 | RRIRMRPPRLPRPRPRPQLDPRP | 0.277
63 | RRIRMRPPRLPRPRPRPQLPPRP | -0.105
64 | RRIRMRPPRLPRPRPRPQNGPRP | 0.0258
65 | RRIRMRPPRLPRPRPRPQPGPRP | 0.778
66 | RRIRMRPPRLPRPRPRPQPPPRP | 1.18

Row | Sequence | shrunken log2 fold change
67 | RRIRMRPPRLPRPRPRPQQTPRP | 1.14
68 | RRIRMRPPRLPRPRPRPQRTPRP | 1.56
69 | RRIRMRPPRLPRPRPRPQRVPRP | 1.27
70 | RRIRMRPPRLPRPRPRPQSDPRP | -0.00296
71 | RRIRMRPPRLPRPRPRPQSKPRP | 0.0671
72 | RRIRMRPPRLPRPRPRPQTMPRP | 0.276
73 | RRIRMRPPRLPRPRPRPQVEPRP | -0.00107
74 | RRIRMRPPRLPRPRPRPQWMPRP | 0.109
75 | RRIRMRPPRLPRPRPRPQWNPRP | -0.149
76 | RRIRMRPPRLPRPRPRPQYMPRP | -0.969
77 | RRIRMRPPRLPRPRPRPQYTPRP | -0.0579
78 | RRIRMRPPRLPRPRPRPRAEPRP | 1.73
79 | RRIRMRPPRLPRPRPRPRAFPRP | 0.918
80 | RRIRMRPPRLPRPRPRPRAHPRP | 0.758
81 | RRIRMRPPRLPRPRPRPRAYPRP | 0.426
82 | RRIRMRPPRLPRPRPRPRCRPRP | 0.619
83 | RRIRMRPPRLPRPRPRPRDWPRP | 1.31
84 | RRIRMRPPRLPRPRPRPREIPRP | 1.35
85 | RRIRMRPPRLPRPRPRPRFLPRP | -0.00457
86 | RRIRMRPPRLPRPRPRPRFWPRP | 0.522
87 | RRIRMRPPRLPRPRPRPRGTPRP | 1.36
88 | RRIRMRPPRLPRPRPRPRHCPRP | 0.28

Row | Sequence | shrunken log2 fold change
89 | RRIRMRPPRLPRPRPRPRHIPRP | 0.0163
90 | RRIRMRPPRLPRPRPRPRIIPRP | -0.138
91 | RRIRMRPPRLPRPRPRPRIPPRP | 0.199
92 | RRIRMRPPRLPRPRPRPRKAPRP | 1.09
93 | RRIRMRPPRLPRPRPRPRLRPRP | 1.17
94 | RRIRMRPPRLPRPRPRPRMNPRP | -0.138
95 | RRIRMRPPRLPRPRPRPRPQPRP | 1.13
96 | RRIRMRPPRLPRPRPRPRRHPRP | 1.02
97 | RRIRMRPPRLPRPRPRPRSDPRP | 0.722
98 | RRIRMRPPRLPRPRPRPRWKPRP | 0.214
99 | RRIRMRPPRLPRPRPRPRWRPRP | 0.732
100 | RRIRMRPPRLPRPRPRPRYCPRP | -0.164
101 | RRIRMRPPRLPRPRPRPRYSPRP | -0.342
102 | RRIRMRPPRLPRPRPRPSDAPRP | 0.617
103 | RRIRMRPPRLPRPRPRPSEEPRP | 0.0287
104 | RRIRMRPPRLPRPRPRPSESPRP | -0.01
105 | RRIRMRPPRLPRPRPRPSEWPRP | 0.0913
106 | RRIRMRPPRLPRPRPRPSHDPRP | 0.0846
107 | RRIRMRPPRLPRPRPRPSLGPRP | 0.193
108 | RRIRMRPPRLPRPRPRPSNCPRP | -0.376
109 | RRIRMRPPRLPRPRPRPSNPPRP | 0.155
